Data on two molecules can be found in publication PMC6829862, “Gγ and Gα Identity Dictate a G-Protein Heterotrimer Plasma Membrane Targeting” (Cells, 2019).

This test concerns the target T1, mCherry–Gβ1γ2 dimer (UniProt P62873 1-340; P59768 1-71, 20-carbon geranylgeranyl lipid on the cysteine of the C-terminal CaaX motif (said of Gγ2 in general)).
T1 construct: Gβ1 subunit; cDNA in pcDNA3.1+ from UMR cDNA Resource Center; FP cloned at the N-terminus; Gγ2 subunit; source: HEK 293, transiently co-transfected (mCherry–Gβ1 and Gγ2), in living cells; not shown: mCherry, N-terminal, kept
As to the kind of experiment: FRET or BRET; FLIM-FRET in living transiently transfected HEK 293 cells at 37 °C; donor Citrine in Gα, acceptor mCherry on Gβ1 with the appropriate Gγ; efficiency E = 1 − τda/τd from the short lifetime component τ1 (donor alone 2.7 ± 0.1 ns), analysed only at the plasma membrane; GppNHp added to the culture did not change the signal. Particulars: partners not purified.

B1: Citrine–Gαi3 (natural protein)
chain: MGCTLSAEDKAAVERSKMIDRNLREDGEKAAKEVKLLLLGAGESGKSTIVKQMKIIHEDGYSEDECKQYKVVVYSNTIQSIIAIIRAMGRLKIDFGEAARADDARQLFVLAGSAEEGVMTPELAGVIKRLWRDGGVQACFSRSREYQLNDSASYYLNDLDRISQSNYIPTQQDVLRTRVKTTGIVETHFTFKDLYFKMFDVGGQRSERKKWIHCFEGVTAIIFCVALSDYDLVLAEDEEMNRMHESMKLFDSICNNKWFTETSIILFLNKKDLFEEKIKRSPLTICYPEYTGSNTYEEAAAYIQCQFEDLNRRKDTKEIYTHFTCATDTKNVQFVFDAVTDVIIKNNLKECGLY
notes: cDNA in pcDNA3.1+ from UMR cDNA Resource Center; also called loop-tagged Gαi3; source: HEK 293, transiently transfected, in living cells; not shown: Citrine, internal (after residue 114), kept
The molecule B1 yielded an FRET efficiency of 50%.

B2: Citrine–GαsIEK (natural protein)
chain: MGCLGNSKTEDQRNEEKAQREANKKAAAQLQKDKQVYRATHRLLLLGAGESGKSTIVKQMRILHVNGFNGNSDGEKATKVQDIKNNLKEAIETIVAAMSNLVPPVELANPENQFRVDYILSVMNVPDFDFPPEFYEHAKALWEDEGVRACYERSNEYQLIDCAQYFLDKIDVIKQADYVPSDQDLLRCRVLTSGIFETKFQVDKVNFHMFDVGGQRDERRKWIQCFNDVTAIIFVVASSSYNMVIREDNQTNRLQEALNLFKSIWNNRWLRTISVILFLNKQDLLAEKVLAGKSKIEDYFPEFARYTTPEDATPEPGEDPRVTRAKYFIRDEFLRISTASGDGRHYCYPHFTCAVDTENIRRVFNDCRDIIQRMHLRQYELL
notes: Gαs subunit with the conserved region Ile26–Glu27–Lys28 (G.HN.43–45) changed to three alanines; cDNA from UMR cDNA Resource Center; the L1 loop Glu71-Ser82 exchanged for the fluorescent protein as in m1; Mutations made with the Quick Change method on the Gαs fusion; also called mutant GαsIEK protein; source: HEK 293, transiently transfected; in living cells (FLIM-FRET) and in cell lysate or …
In turn, B2 gave an FRET efficiency of 12.9%.
